Kd data for three substances are collected here from patent US20180009867A1.

The target in this experiment is IL-1 receptor. In words: SPR, immobilized IL-1 receptor.

By Kd is commonly meant the concentration at which binding is half-saturated. The low end stands for a tighter complex, the high end for a looser complex. Substance “mutant chicken interleukin-1β protein having E118K mutation (ligand)” registered a Kd of 0.37 nM.
Consider “mutant chicken interleukin-1β protein having T117A mutation (ligand)”, for which the Kd was 0.23 nM.
“wild-type chicken interleukin-1β (ligand)” returned a Kd of 0.12 nM.
